Experiments:
Assay in all cases: NMR titration
CypA^V6S = CypA^V6S (UniProt P62937 1-165, V6S)
CypA^V6TV29L = CypA^V6TV29L (UniProt P62937 1-165, V6T | V29L)
CypA^V6I = CypA^V6I (UniProt P62937 1-165, V6I)
CypA^V29L = CypA^V29L (UniProt P62937 1-165, V29L)
CypA^V29T = CypA^V29T (UniProt P62937 1-165, V29T)
CypA^V6T = CypA^V6T (UniProt P62937 1-165, V6T)
CypA^V29A = CypA^V29A (UniProt P62937 1-165, V29A)
cyclophilin A = cyclophilin A (UniProt P62937 1-165)
CypA^V6L = CypA^V6L (UniProt P62937 1-165, V6L)
CypA^V6L, sequence (P62937 whole entry V6L): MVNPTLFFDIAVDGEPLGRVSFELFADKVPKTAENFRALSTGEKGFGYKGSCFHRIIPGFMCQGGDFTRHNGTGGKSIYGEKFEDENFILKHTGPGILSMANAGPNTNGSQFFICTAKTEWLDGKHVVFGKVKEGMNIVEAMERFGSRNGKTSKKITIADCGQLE

CypA^V6A = CypA^V6A (UniProt P62937 1-165, V6A)
CypA^V6A, sequence (P62937 whole entry V6A): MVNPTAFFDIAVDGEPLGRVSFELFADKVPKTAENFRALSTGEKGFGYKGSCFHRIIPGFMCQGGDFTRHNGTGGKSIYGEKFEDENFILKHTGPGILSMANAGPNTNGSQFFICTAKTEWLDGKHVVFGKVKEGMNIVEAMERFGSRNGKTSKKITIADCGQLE

CypA^V29T, sequence (P62937 whole entry V29T): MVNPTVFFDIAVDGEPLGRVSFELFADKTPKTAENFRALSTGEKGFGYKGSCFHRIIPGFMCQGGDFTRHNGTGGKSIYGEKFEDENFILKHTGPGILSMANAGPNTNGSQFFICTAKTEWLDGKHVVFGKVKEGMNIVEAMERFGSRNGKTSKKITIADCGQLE
CypA^V6S, sequence (P62937 whole entry V6S): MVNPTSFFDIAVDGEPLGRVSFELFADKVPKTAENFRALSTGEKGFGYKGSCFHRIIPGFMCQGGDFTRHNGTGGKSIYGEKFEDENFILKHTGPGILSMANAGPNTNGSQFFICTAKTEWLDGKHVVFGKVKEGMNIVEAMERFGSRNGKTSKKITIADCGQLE
CypA^V6TV29L, sequence (P62937 whole entry V6T/V29L): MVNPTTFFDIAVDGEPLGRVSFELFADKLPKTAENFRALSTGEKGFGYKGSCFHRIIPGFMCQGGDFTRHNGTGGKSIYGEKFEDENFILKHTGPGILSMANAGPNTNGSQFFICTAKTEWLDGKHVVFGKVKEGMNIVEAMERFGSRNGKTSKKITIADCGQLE
CypA^V29L, sequence (P62937 whole entry V29L): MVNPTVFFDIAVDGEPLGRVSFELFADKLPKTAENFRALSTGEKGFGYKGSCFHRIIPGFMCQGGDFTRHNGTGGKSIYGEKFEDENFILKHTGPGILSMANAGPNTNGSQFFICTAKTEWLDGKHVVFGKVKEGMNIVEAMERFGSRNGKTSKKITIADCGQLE
cyclophilin A, sequence (P62937 whole entry): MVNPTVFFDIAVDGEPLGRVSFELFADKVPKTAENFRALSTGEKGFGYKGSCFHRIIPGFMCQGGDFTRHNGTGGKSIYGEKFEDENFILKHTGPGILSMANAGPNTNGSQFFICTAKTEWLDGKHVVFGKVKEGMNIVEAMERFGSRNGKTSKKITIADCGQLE
CypA^V6T, sequence (P62937 whole entry V6T): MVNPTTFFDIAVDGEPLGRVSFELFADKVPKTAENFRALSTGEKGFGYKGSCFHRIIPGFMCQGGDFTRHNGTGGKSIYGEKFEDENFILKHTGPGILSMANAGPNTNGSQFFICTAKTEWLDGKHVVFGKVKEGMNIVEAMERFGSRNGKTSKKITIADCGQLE
CypA^V29A, sequence (P62937 whole entry V29A): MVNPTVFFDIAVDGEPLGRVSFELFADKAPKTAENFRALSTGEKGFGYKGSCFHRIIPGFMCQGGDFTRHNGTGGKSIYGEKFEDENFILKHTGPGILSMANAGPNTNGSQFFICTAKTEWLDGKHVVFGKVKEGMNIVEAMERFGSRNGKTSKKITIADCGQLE
CypA^V6I, sequence (P62937 whole entry V6I): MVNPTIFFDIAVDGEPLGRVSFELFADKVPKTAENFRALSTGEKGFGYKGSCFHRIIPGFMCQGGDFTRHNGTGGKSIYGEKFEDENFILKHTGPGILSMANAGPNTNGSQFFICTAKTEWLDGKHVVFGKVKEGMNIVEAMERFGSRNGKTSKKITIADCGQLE

GSFGPDLRAGD [FGP peptide]
Kd (CypA^V6S): 65 µM | Kd (CypA^V6TV29L): 37 µM | Kd (CypA^V6I): 86 µM | Kd (CypA^V29L): 38 µM | Kd (CypA^V29T): 73 µM | Kd (CypA^V6T): 48 µM | Kd (CypA^V29A): 57 µM | Kd (cyclophilin A): 76 µM | Kd (CypA^V6L): 69 µM | Kd (CypA^V6A): 82 µM

From publication PMC5336394 (Structure (London, England : 1993), 2017)
